Source: US20140134132A1

What was measured:
Test in all cases: cell-based or functional assay
[1] = target: multidrug resistance associated protein 2 (human) (UniProt Q92887)
[2] = target: organic anion transporting polypeptide 1B1 (UniProt Q9Y6L6)
CYP3A4 = CYP3A4 (UniProt P08684)
Sequence of CYP3A4 (P08684 whole entry): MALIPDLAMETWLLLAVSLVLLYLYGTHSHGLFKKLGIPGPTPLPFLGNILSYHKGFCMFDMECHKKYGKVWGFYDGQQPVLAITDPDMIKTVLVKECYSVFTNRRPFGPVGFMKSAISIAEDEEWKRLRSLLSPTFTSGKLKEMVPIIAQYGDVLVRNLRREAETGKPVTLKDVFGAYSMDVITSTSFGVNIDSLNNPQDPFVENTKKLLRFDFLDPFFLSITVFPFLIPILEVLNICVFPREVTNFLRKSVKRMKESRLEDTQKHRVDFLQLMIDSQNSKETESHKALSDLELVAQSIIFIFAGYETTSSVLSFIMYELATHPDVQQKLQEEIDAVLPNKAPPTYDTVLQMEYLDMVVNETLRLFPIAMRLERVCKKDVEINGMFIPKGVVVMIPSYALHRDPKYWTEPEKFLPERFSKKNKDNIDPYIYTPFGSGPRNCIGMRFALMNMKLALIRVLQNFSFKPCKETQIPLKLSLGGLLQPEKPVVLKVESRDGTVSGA

Sequence of multidrug resistance associated protein 2 (human) (Q92887 whole entry): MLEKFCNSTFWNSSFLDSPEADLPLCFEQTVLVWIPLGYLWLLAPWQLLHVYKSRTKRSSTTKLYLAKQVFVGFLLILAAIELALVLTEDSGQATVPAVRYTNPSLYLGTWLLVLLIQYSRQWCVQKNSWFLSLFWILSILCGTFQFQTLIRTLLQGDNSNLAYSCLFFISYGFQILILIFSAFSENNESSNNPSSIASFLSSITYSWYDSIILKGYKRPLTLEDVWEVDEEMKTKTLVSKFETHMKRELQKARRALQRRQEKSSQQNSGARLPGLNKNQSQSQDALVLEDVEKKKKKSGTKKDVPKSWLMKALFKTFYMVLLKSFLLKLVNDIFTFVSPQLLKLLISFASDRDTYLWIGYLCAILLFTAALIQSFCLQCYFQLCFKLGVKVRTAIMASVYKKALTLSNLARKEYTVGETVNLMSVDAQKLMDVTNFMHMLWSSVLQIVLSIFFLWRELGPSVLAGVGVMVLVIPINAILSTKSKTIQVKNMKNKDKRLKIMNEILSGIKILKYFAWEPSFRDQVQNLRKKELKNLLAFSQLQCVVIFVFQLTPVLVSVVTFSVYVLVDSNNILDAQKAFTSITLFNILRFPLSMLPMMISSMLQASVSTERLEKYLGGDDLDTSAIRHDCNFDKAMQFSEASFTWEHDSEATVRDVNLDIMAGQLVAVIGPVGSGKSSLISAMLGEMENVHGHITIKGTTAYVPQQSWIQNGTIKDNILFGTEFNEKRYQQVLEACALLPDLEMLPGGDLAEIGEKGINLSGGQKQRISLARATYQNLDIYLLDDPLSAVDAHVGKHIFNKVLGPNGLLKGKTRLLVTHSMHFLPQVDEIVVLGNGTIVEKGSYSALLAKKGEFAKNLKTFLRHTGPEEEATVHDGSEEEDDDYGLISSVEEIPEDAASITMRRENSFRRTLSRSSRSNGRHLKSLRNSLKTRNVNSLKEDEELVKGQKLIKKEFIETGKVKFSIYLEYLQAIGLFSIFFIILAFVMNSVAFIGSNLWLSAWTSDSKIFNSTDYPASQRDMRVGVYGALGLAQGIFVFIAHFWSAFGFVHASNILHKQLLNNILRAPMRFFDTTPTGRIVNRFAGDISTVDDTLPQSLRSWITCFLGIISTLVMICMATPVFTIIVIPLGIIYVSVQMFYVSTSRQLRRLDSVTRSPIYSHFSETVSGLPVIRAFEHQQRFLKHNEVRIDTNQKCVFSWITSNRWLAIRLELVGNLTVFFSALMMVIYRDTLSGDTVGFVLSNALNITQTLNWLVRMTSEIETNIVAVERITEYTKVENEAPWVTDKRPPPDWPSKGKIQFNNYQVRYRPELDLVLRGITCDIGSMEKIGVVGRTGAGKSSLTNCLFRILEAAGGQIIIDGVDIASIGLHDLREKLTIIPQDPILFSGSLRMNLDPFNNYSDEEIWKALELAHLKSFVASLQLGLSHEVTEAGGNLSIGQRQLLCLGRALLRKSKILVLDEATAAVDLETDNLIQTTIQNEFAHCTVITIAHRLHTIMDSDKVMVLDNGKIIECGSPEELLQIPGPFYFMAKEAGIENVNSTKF
Sequence of organic anion transporting polypeptide 1B1 (Q9Y6L6 whole entry): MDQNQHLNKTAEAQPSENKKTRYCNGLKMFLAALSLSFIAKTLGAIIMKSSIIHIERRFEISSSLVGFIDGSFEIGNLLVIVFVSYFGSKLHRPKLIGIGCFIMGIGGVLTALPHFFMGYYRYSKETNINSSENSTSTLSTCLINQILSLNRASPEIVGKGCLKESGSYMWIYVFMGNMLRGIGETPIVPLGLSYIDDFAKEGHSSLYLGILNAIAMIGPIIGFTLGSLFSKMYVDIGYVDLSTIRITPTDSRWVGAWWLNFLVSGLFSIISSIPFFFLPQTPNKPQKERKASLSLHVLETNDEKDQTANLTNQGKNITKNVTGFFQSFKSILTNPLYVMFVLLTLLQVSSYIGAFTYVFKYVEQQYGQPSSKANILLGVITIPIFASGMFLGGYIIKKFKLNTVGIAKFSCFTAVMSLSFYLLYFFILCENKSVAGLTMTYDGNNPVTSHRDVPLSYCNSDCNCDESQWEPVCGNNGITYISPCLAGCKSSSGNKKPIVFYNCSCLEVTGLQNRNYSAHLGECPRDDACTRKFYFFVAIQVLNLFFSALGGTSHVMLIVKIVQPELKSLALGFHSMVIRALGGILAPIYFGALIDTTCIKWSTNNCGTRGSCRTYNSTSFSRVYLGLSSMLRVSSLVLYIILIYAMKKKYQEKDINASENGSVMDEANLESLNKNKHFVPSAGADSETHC

Row | Substance | MRP2 IC50 [1] [µM] | OATP1B13 IC50 [2] [µM] | NIM TDI kinact/Ki (CYP3A4)
1 | 3-[D-Ala]-4-[(2S,3R)-3-methyl-2-(methylamino)-6-morpholinohexanoyl]-cyclosporin (peptide) | – | 6.9 | 0.001
2 | 3-[D-Ala]-4-[(2S,3R)-5-(4-cyclobutylpiperazin-1-yl)-3-methyl-2-(methylamino)pentanoyl]-cyclosporin (peptide) | – | 2.1 | –
3 | 3-[D-Ala]-4-[(2S,3R)-5-methoxy-3-methyl-2-(methylamino)pentanoyl]-cyclosporin (peptide) | 13 | 2.3 | –
4 | 3-[D-Ala]-4-[(2S,3R)-6-(4-ethylpiperazin-1-yl)-3-methyl-2-(methylamino)hexanoyl]-cyclosporin (peptide) | – | 2.6 | –
5 | 3-[D-Ala]-4-[(2S,3R)-6-(4-methoxypiperidin-1-yl)-3-methyl-2-(methylamino)hexanoyl]-cyclosporin (peptide) | – | 4.3 | –
6 | 3-[D-Ala]-4-[(2S,3R)-6-(8-oxa-3-azabicyclo[3.2.1]octan-3-yl)-3-methyl-2-(methylamino)-6-oxohexanoyl]-cyclosporin (peptide) | – | 1.9 | –
7 | 3-[D-Ala]-4-[(2S,3R)-6-hydroxy-3,6-dimethyl-2-(methylamino)heptanoyl]-cyclosporin (peptide) | – | 2.2 | –
8 | 3-[D-Ala]-4-[(2S,3S)-3-methyl-2-(methylamino)-4-(2-((S)-3-methylmorpholino)ethoxy)butanoyl]-cyclosporin (peptide) | – | 4.8 | –
9 | 3-[D-Ala]-4-[(2S,3S)-3-methyl-2-(methylamino)-4-(2-oxo-2-(piperazin-1-yl)ethoxy)butanoyl]-cyclosporin (peptide) | – | 6.9 | –
10 | 3-[D-Ala]-4-[(2S,3S)-3-methyl-2-(methylamino)-4-(((S)-tetrahydrofuran-3-yl)oxy)butanoyl]-cyclobsporin (peptide) | – | 1.9 | –
11 | 3-[D-Ala]-4-[(2S,3S)-3-methyl-4-(2-(methyl(2,2,2-trifluoroethyl)amino)ethoxy)-2-(methylamino)butanoyl]-cyclosporin (peptide) | – | 1.9 | –
12 | 3-[D-Ala]-4-[(2S,3S)-4-(2-(1,1-dioxidothiomorpholino)ethoxy)-3-methyl-2-(methylamino)butanoyl]-cyclosporin (peptide) | 28 | 3 | –
13 | 3-[D-Ala]-4-[(2S,3S)-4-(2-(4-cyclobutylpiperazin-1-yl)ethoxy)-3-methyl-2-(methylamino)butanoyl]-cyclosporin (peptide) | – | 3.5 | 0.0007
14 | 3-[D-Ala]-4-[(2S,3S)-4-(2-(4-isopropylpiperazin-1-yl)-2-oxoethoxy)-3-methyl-2-(methylamino)butanoyl]-cyclosporin (peptide) | – | 8 | –
15 | 3-[D-Ala]-4-[(2S,3S)-4-(2-(4-isopropylpiperazin-1-yl)ethoxy)-3-methyl-2-(methylamino)butanoyl]-cyclosporin (peptide) | – | 4.4 | –
16 | 3-[D-Ala]-4-[(2S,3S)-4-((4-ethylpiperazine-1-carbonyl)oxy)-3-methyl-2-(methylamino)butanoyl]-cyclosporin (peptide) | – | 1.9 | –
17 | 3-[D-Ala]-4-[(2S,3S)-4-methoxy-3-methyl-2-(methylamino)butanoyl]-cyclosporin (peptide) | 14 | 5.1 | –
18 | 3-[D-Ala]-4-[(S)-4-methoxy-3-(methoxymethyl)-2-(methylamino)butanoyl]-cyclosporin (peptide) | – | 2.6 | –
19 | 3-[D-Ala]-4[(2S,3R)-2-Amino-4-(4-ethyl-piperazin-1-yl)-butanoyl]-cyclosporin (peptide) | – | 4.56 | –
20 | 3-[D-Ala]-4[(2S,3R)-2-Amino-4-(4-isopropyl-piperazin-1-yl)-butanoyl]-cyclosporin (peptide) | – | 2.44 | –
21 | 3-[D-Ala]-4[(2S,3S)-2-Amino-4-(4-cyclobutyl-piperazin-1-yl)-3-methyl-butanoyl]-cyclosporin (peptide) | – | 4 | –
22 | 3-[D-Ala]-4[(2S,3S)-2-Amino-4-[4-(2-methoxy-ethyl)-piperazin-1-yl]-3-methyl-butanoyl]-cyclosporin (peptide) | – | 3.2 | –

Further lines, results first:

Row | MRP2 IC50 [1] [µM] | OATP1B13 IC50 [2] [µM] | NIM TDI kinact/Ki (CYP3A4) | Substance
23 | 13 | 4.8 | – | 3-[D-Ala]-4-[(2S,3R)-3-methyl-2-(methylamino)-4-(4-(methylsulfonyl)piperazin-1-yl)butanoyl]-cyclosporin (peptide)
24 | 18 | 8.2 | – | 3-[D-Ala]-4-[(2S,3R)-3-methyl-2-(methylamino)-4-morpholinobutanoyl]-cyclosporin (peptide)
25 | 15 | 1.9 | 5 M⁻¹ s⁻¹ | 3-[D-Ala]-4-[(2S,3R)-4-methoxy-3-methyl-2-(methylamino)butanoyl]-cyclosporin (peptide)
26 | – | 2.2 | – | 3-[D-Ala]-4-[(2S,3R)-6-(4-(2-methoxyethyl)piperazin-1-yl)-3-methyl-2-(methylamino)hexanoyl]-cyclosporin (peptide)
27 | – | 9.4 | – | 3-[D-Ala]-4-[(2S,3S)-3-methyl-2-(methylamino)-4-(2-(4-methylpiperazin-1-yl)-2-oxoethoxy)butanoyl]-cyclosporin (peptide)
28 | 30 | 8.7 | – | 3-[D-Ala]-4-[(2S,3S)-3-methyl-2-(methylamino)-4-(2-((4-methylpiperazine-1-carbonyl)oxy)ethoxy)butanoyl]-cyclosporin (peptide)
29 | 23 | 7.6 | – | 3-[D-Ala]-4-[(2S,3S)-3-methyl-2-(methylamino)-4-(2-morpholinoethoxy)butanoyl]-cyclosporin (peptide)
30 | 21 | 6.7 | – | 3-[D-Ala]-4-[(2S,3S)-3-methyl-2-(methylamino)-4-((4-methylpiperazine-1-carbonyl)oxy)butanoyl]-cyclosporin (peptide)
31 | – | 1.4 | – | 3-[D-Ala]-4-[(2S,3S)-3-methyl-2-(methylamino)-4-((S)-3-oxotetrahydro-1H-oxazolo[3,4-a]pyrazin-7(3H)-yl)butanoyl]-cyclosporin (peptide)
32 | – | 2.3 | – | 3-[D-Ala]-4-[(2S,3S)-3-methyl-2-(methylamino)-4-((morpholine-4-carbonyl)oxy)butanoyl]-cyclosporin (peptide)
33 | 9 | 1.4 | – | 3-[D-Ala]-4-[(2S,3S)-3-methyl-2-(methylamino)-4-(methylsulfonyl)butanoyl]-cyclosporin (peptide)
34 | – | 3.5 | – | 3-[D-Ala]-4-[(2S,3S)-4-(2-(4-cyclohexylpiperazin-1-yl)-2-oxoethoxy)-3-methyl-2-(methylamino)butanoyl]-cyclosporin (peptide)
35 | – | 3.6 | – | 3-[D-Ala]-4-[(2S,3S)-4-(2-((2R,5R)-2,5-dimethylmorpholino)ethoxy)-3-methyl-2-(methylamino)butanoyl]-cyclosporin (peptide)
36 | – | 5 | – | 3-[D-Ala]-4-[(2S,3S)-4-(2-((S)-3-methoxypyrrolidin-1-yl)ethoxy)-3-methyl-2-(methylamino)butanoyl]-cyclosporin (peptide)
37 | – | 1.8 | 0.0015 | 3-[D-Ala]-4-[(2S,3S)-4-(2-hydroxy-2-methylpropoxy)-3-methyl-2-(methylamino)butanoyl]-cyclosporin (peptide)
38 | – | 1.9 | 0.0004 | 3-[D-Ala]-4-[(2S,3S)-4-(((S)-4-ethylmorpholin-2-yl)methoxy)-3-methyl-2-(methylamino)butanoyl]-cyclosporin (peptide)
39 | – | 4.3 | – | 3-[D-Ala]-4-[(2S,3S)-4-(((S)-4-isopropylmorpholin-2-yl)methoxy)-3-methyl-2-(methylamino)butanoyl]-cyclosporin (peptide)
40 | – | 3.6 | – | 3-[D-Ala]-4-[(2S,3S)-4-hydroxy-3-methyl-2-(methylamino)butanoyl]-cyclosporin (peptide)
41 | – | 1.17 | – | 3-[D-Ala]-4[(2S,3R)-2-Amino-3-methyl-4-(4-oxetan-3-yl-piperazin-1-yl)]-butanoyl]-cyclosporin (peptide)
42 | – | 5.2 | – | 3-[D-Ala]-4[(2S,3R)-2-Amino-4-(4-cyclobutyl-piperazin-1-yl)-butanoyl]-cyclosporin (peptide)
43 | – | 6.1 | – | 3-[D-Ala]-4[(2S,3R)-2-Amino-4-[4-(2-methoxy-ethyl)-piperazin-1-yl]-3-methyl-butanoyl]-cyclosporin (peptide)
44 | – | 1.8 | – | 3-[D-Ala]-4[(2S,3S)-2-Amino-3-methyl-4-(4-oxetan-3-yl-piperazin-1-yl)-butanoyl]-cyclosporin (peptide)
45 | – | 3.6 | – | 3-[D-Ala]-4[(2S,3S)-2-Amino-3-methyl-4-morpholin-4-yl-butanoyl]-cyclosporin (peptide)
46 | – | 5.1 | – | 3-[D-Ala]-4[(2S,3S)-2-Amino-4-(4-ethyl-piperazin-1-yl)-3-methyl-butanoyl]-cyclosporin (peptide)
47 | – | 0.4 | – | 3-[D-Ala]-4[(2S,3S)-3-methyl-2-(methylamino)-4-(4-(methylsulfonyl)piperazin-1-yl)butanoyl]-cyclosporin (peptide)
